Test results taken from patent US20030119169A1 (IDUN PHARMACEUTICALS, published 2003).
No end group written: not given here.

What was measured:
[1] = target: T1, CPP32, bacterially expressed recombinant active enzyme (human, UniProt P42574 29-277, limits assumed); assay: inhibition of hydrolysis of 10 µM DEVD-AMC, continuous fluorometric assay, bacterial lysate, 30 min preincubation
T1 construct: Bacterially expressed (as a GST fusion, as described for Mch3) and used as bacterial lysate; also called recombinant CPP32
T1 sequence (looked up): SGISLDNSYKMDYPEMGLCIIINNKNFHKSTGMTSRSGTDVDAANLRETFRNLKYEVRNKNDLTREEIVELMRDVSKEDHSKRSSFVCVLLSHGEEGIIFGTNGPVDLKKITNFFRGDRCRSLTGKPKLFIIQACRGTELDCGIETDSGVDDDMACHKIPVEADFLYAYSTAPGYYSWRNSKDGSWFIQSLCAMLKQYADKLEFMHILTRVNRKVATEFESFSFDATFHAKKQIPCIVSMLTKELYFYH

[2] = target: T2, Mch3α, bacterially expressed recombinant active enzyme (human, UniProt P55210 24-303, limits assumed); assay: inhibition of hydrolysis of 50 µM DEVD-AMC, continuous fluorometric assay, bacterial lysate, 30 min preincubation
T2 construct: Expressed in E. coli as a GST fusion (Mch3α1 or Mch3α2); also called recombinant Mch3α
T2 sequence: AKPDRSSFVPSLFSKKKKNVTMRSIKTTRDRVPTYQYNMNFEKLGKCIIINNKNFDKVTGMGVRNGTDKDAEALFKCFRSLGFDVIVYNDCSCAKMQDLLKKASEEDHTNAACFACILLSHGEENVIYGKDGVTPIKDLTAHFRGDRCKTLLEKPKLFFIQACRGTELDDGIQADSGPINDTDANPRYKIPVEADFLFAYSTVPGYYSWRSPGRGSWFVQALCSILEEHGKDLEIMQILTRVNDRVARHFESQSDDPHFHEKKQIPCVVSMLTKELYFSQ

Ki [1]: 0.59 nM
Ki [2]: 1.8 nM
B1: tetrapeptide DEVD aldehyde (peptide)
peptide: DEVD-aldehyde
notes: also called DEVD-CHO
